In patent US20230159661A1 (ICHNOS SCIENCES, published 2023):
Positions count from the first letter of the chain named.

Key:
[1] = molecular target: T1, CD3 on human T cells (PBMCs) (human, UniProt P07766 23-207); assay: flow cytometry on PBMCs, T cells, anti-human IgG Fc-PE
T1 construct: whole, on cells; also called CD3ε; CD4+ T cells
Experimental: (§1) FACS simple binding was performed using PBMCs (to assess binding to CD3) or NCI-H1703 squamous cancer cells (to assess binding to EGFR). Cells were resuspended at 10⁶ cells/ml in FACS buffer (1×PBS+10% Versene+2% FBS), and 100 ul were added to U-bottom 96-well plates which were then centrifuged at 350 g for 3 min. […] The cells were washed in FACS buffer and stained with the following antibodies (ThermoFisher): anti-human CD4 PE-eF610 (1/100), anti-human CD8a APC (1/100) and anti-human IgG (Fc-gamma specific) PE (1/200) for 20 min 4° C. Cells were washed with FACS buffer and resuspended in FACS buffer containing Sytox green viability dye (1/200), for 20 min at 4° C. and acquired on a CytoFlex (Beckman Coulter).
(§2) For the PBMCs, the cells were also labelled with anti-CD4 or anti-CD8 antibodies.

[2] = molecular target: T1, CD3 on human T cells (PBMCs); assay: flow cytometry on PBMCs, CD4+ T cells, anti-human IgG Fc-PE
Experimental: as §1, §2

[3] = molecular target: T1, CD3 on human T cells (PBMCs); assay: flow cytometry on PBMCs, CD8+ T cells, anti-human IgG Fc-PE
Experimental: as §1, §2

[4] = molecular target: T2, human EGFR soluble extracellular region with C-terminal poly-histidine tag (hEGFR) (human, UniProt P00533 25-638); assay: ELISA, single EGFR binding, coated huEGFR-His, anti-human IgG Fab-HRP
T2 construct: also called human EGFR His-tagged protein; soluble human EGFR

[5] = molecular target: T3, membrane-bound human EGFR receptor expressed on cells (human, UniProt P00533 25-1210); assay: flow cytometry on NCI-H1703 squamous cancer cells, anti-human IgG Fc-PE
T3 construct: whole, on cells; the construct transfected into BAF cells is not described; also called EGFR-transfected BAF cells
Experimental: as §1, §2

[6] = molecular target: T2, human EGFR soluble extracellular region …; assay: dual binding ELISA, coated human EGFR, detection with huCD3-biotin and streptavidin-HRP
hEGFR-IV_580-638 = molecular target: T4, hEGFR-IV_580-638 (human); assay: SPR, antibody captured on Protein G
T4 construct: PCR amplified from the His-tagged hEGFR construct; purified on Ni sepharose
T4 chain: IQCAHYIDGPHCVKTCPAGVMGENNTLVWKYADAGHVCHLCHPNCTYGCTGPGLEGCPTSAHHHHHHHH
Experimental: (§3) Measurements were performed on a Biacore 2000 instrument (GE). […] Various human and cynomolgus EGFR constructs were injected as analyte at a concentration of 200 nM at a flow rate of 30 μl/min in HBS-EP buffer. Dissociation time was 4 min. After each binding event, the surface was regenerated with 10 μl of glycine buffer pH 1.5. To verify the integrity of the EGFR domain IV constructs, a polyclonal goat anti-EGFR known to us to contain at least one anti EGFR domain IV binder (AF231, Bio-Techne AG, Zug, Switzerland) was immobilized as described above and human and cynomolgus EGFR constructs were injected as described above.

[7] = molecular target: T5, Cynomolgus EGFR-IV_580-638 (cynomolgus); assay: SPR, antibody captured on Protein G
T5 chain: T4 chain with P58A, T59R
Experimental: as §3

hEGFR-IV_556-638 = molecular target: T6, hEGFR-IV_556-638 (human); assay: SPR, chimeric antibody captured on Protein G, analyte 200 nM
T6 construct: PCR amplified from the His-tagged hEGFR construct; purified on Ni sepharose
T6 chain: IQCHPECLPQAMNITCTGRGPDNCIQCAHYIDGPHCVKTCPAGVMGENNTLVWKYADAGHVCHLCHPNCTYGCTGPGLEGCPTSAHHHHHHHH
Experimental: as §3

[8] = molecular target: T7, Cynomolgus EGFR-IV_556-638 (cynomolgus); assay: as above
T7 chain: T6 chain with A11V, P82A, T83R
Experimental: as §3

hEGFR-I-II-III_hErbB3-IV = molecular target: T8, hEGFR-I-II-III_hErbB3-IV (human); assay: ELISA, coated antigen 2 ug/ml
T8 construct: also called chimeric EGFR I-III Her3 IV molecule; EGFR-Her3 chimeric molecule (B)
Experimental: Supernatants from both subclones were harvested and purified using a LC-kappa mouse affinity matrix (Life technologies), according to the manufacturer's instructions. These purified antibodies were tested by ELISA on 96-well plates coated with either soluble human EGFR or recombinant EGFR-Her3 chimeric constructs. These molecules were diluted at 2 ug/ml in PBS and immobilized overnight at 4° C. on a high binding 96-well plates. […] As a control, Panitumumab (Vectibix®) was used at the same concentrations. […] Following this incubation, the plates were washed and incubated with 100 ul of TMB substrate. The reaction was stopped by adding 100 μl of H₂SO₄ 2N and the absorbance was read at 450 nm on a Synergy HT2 spectrophotometer (Biotek, USA; distributor: WITTEC AG, Littau, Switzerland).

T1 sequence (P07766 23-207): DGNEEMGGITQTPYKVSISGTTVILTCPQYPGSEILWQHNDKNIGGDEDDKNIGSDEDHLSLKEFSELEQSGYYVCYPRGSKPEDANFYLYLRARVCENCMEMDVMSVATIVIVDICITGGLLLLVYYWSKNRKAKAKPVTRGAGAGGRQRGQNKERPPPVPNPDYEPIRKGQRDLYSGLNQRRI

B1: CD3×EGFR_SF3 (bispecific antibody, human IgG1, kappa, L234A L235A)
chain 1: EVQLVESGGGLVQPGGSLRLSCAASGFTFNTYAMNWVRQAPGKGLEWVARIRSKYNNYATYYADSVKSRFTISRDDSKNTLYLQMNSLRAEDTAVYYCVRHGNFGNSYVSYFAYWGQGTTVTVSSGGGGSGGGGSGGGGSEIVVTQSPATLSVSPGERATLSCRSSTGAVTESNYANWVQEKPGQAFRGLIGGANKRAPGVPARFSGSLSGDEATLTISSLQSEDFAVYYCALFYSNTWVFGQGTKLEIKGGGGTQVQLQESGPGLVKPSETLSLTCTVSGGSVSSGDYYWTWIRQSPGKGLEWIGHIYYSGNTNYNPSLKSRLTISIDTSKTQFSLKLSSVTAADTAIYYCVRDRVTGAFDIWGQGTMVTVSSASTKGPSVFPLAPSSKSTSGGTAALGCLVKDYFPEPVTVSWNSGALTSGVHTFPAVLQSSGLYSLSSVVTVPSSSLGTQTYICNVNHKPSNTKVDKKVEPKSCDKTHTCPPCPAPEAAGGPSVFLFPPKPKDTLMISRTPEVTCVVVDVSHEDPEVQFKWYVDGVEVHNAKTKPREEQYNSTFRVVSVLTVLHQDWLNGKEYKCKVSNKALPAPIEKTISKTKGQPREPAVYTLPPSREEMTKNQVKLVCLVTGFYPSDIAVEWESSGQPENNYYTTPPMLDSDGSFSLVSWLNVDKSRWQQGNIFSCSVMHEALHNRFTQKSLSLSPG
chain 2: not shown
chain 3: DKTHTCPPCPAPEAAGGPSVFLFPPKPKDTLMISRTPEVTCVVVDVSHEDPEVKFNWYVDGVEVHNAKTKPREEQYNSTYRVVSVLTVLHQDWLNGKEYKCKVSNKALPAPIEKTISKAKGQPREPEVATFPPSRDELTKNQVTLVCLVTGFYPSDIAVEWESNGQPENNYKTDPPLLESDGSFALSSRLRVDKSRWQQGNVFSCSVMHEALHNHYTQKSLSLSPG
notes: Batches AE042, P1069, P1027, TRS
With B1 the EC50 [1] was 5.93 µg/mL, the EC50 [2] was 6.05 µg/mL and the EC50 [3] was 3.91 µg/mL. For the same binder, the EC50 [4] was 0.053 µg/mL, the EC50 [5] was 0.182 µg/mL and the EC50 [6] was 0.171 µg/mL.

B2: 3A6 chimeric antibody (antibody, human IgG1, kappa, V domains shown)
VH: QVQLKQSGPGLVQPSQSLSITCTVSGFSLTSYGVHWVRQSPGKGLEWLGVIWSGGTTDYNAAFISRLSISQDNSKSQVFFKMNSLQANDTAIYYCAGNQGRTVRPTWFAYWGQGTLVTVSS
VL: DILLTQSPAILSVSPGERVSFSCRASQSIGTSIHWYQQRANGSPRLLIKYASESISGIPSRFSGSGSGTDFTLSINSVESEDIAHYYCQQNSNWPLTFGAGTKLELKR
notes: Mouse-human chimeric IgG1 kappa; also called chimeric 3A6 antibody
B2: no binding (tested: 200 nM) (hEGFR-IV_580-638); no binding (tested: 200 nM) [7]; binds (hEGFR-IV_556-638). B2: binds [8].

B3: 3A6 mouse hybridoma antibody (subclone 3A6A12B5) (antibody, V domains shown)
VH: B2 VH
VL: DILLTQSPAILSVSPGERVSFSCRASQSIGTSIHWYQQRANGSPRLLIKYASESISGIPSRFSGSGSGTDFTLSINSVESEDIAHYYCQQNSNWPLTFGAGTKLELK
notes: Tested as mouse IgG (kappa) from hybridoma: supernatant of the parental clone 3A6, purified antibody of the subclone 3A6A12B5; also called 3A6A12F5; 3A6 hybridoma candidate
B3: no binding (tested: 10 to 0.01 µg/ml) (hEGFR-I-II-III_hErbB3-IV).

B4: 10E6 chimeric antibody (antibody, human IgG1, kappa, V domains shown)
VH: DVQLQESGPGRVKPSQSLSLTCTVTGYSLTSDYAWSWIRQFPGNRLEWMVYITYSGITTYNPSLKSRISITRDTSKNQFFLQLNSVTTEDTATYYCAGGDYGLSSWFAYWGQGTLVTVSS
VL: DIVLTQSPVTLSVTPGDRVSLSCRASQSISNYLHWYQQKSHESPRLLIKYASQSISGIPSRFSGSGSGTDFTLSINSVETEDFGMYFCQQSNNWPYTFGGGTKLEIKR
notes: Mouse-human chimeric IgG1 kappa; also called chimeric 10E6 antibody
B4: no binding (tested: 200 nM) (hEGFR-IV_580-638); no binding (tested: 200 nM) [7]; binds (hEGFR-IV_556-638). B4: binds [8].

B5: 10E6 mouse hybridoma antibody (subclone 10E6F5) (antibody, V domains shown)
VH: B4 VH
VL: DIVLTQSPVTLSVTPGDRVSLSCRASQSISNYLHWYQQKSHESPRLLIKYASQSISGIPSRFSGSGSGTDFTLSINSVETEDFGMYFCQQSNNWPYTFGGGTKLEIK
notes: Tested as mouse IgG (kappa) from hybridoma: supernatant of the parental clone 10E6, purified antibody of the subclone 10E6F5; also called 10E6 hybridoma candidate
B5: no binding (tested: 10 to 0.01 µg/ml) (hEGFR-I-II-III_hErbB3-IV).
